For 2 molecules, EC50 and IC50 results are on record in patent US20240117043A1 (SHANGHAI JUNSHI BIOSCIENCES, published 2024).

Test [1] deals with T1, recombinant human TIGIT (His Tag) (human, UniProt Q495A1 22-141).
T1 construct: Coated antigen of the ELISA; not shown: His tag
T1 sequence (looked up): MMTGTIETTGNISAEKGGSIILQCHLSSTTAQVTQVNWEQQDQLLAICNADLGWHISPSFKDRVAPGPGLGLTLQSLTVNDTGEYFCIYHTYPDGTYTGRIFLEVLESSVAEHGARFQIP
In words: ELISA, plate coated with recombinant human TIGIT (His Tag), detection with HRP anti-human IgG4 Fc; unit taken from the concentration axis [2b]. As to the method: (§1) 2. Procedures [0241] a. A 96-well plate was coated with 1.5 μg/mL recombinant human TIGIT (His Tag) (Suzhou Junmeng) as the antigen at 100 μL/well and incubated at 37° C. for 1.5 h. [0242] b. The plate was washed 4 times with 300 μL/well 1×PBST, and 2% BSA was added at 200 μL/well. The plate was blocked at 37° C. for 1.5 h. [0243] c. The plate was washed 4 times with 300 μL/well 1×PBST, and serial dilutions of the bispecific antibodies JS-1,3,5,9 and a negative control: antibody (anti-KLH hIgG4) (initial concentration 1.0 μg/mL, 3-fold serially diluted to 12 concentration points, 100 μL/well) were added. The plate was incubated at 37° C. for 1 h. [0244] d. The plate was washed 4 times with 300 μL/well 1×PBST. [0245] e. 5000-fold diluted horseradish peroxidase (HRP)-conjugated mouse anti-human IgG4 Fc antibody (Southern Biotech, 9200-05) was added at 100 μL/well, and the plate was incubated at 37° C. for 1 h. […] The plate was washed 4 times with 300 μL/well 1×PBST. [0247] g. 0.1 mg/mL TMB was added at 100 μL/well, and after the plate was incubated at 37° C. for 15 min, a 2 M solution of hydrochloric acid was added at 100 μL/well to stop the reactions. [0248] h. The absorbance was measured at 450 nm/620 nm on a microplate reader, and data were analyzed using Graphpad Prism7.
(In general: An ELISA detects its analyte on a solid surface through an enzyme-linked reagent.)

For test [2], the target named is T1, recombinant human TIGIT (His Tag). The test is described as follows: ELISA, plate coated with recombinant human TIGIT (His Tag), detection with HRP anti-human IgG4 Fc; unit taken from the concentration axis [2a]. As to the method:
as §1

The target in test [3] is T2, human TIGIT on the surface of Jurkat-hTIGIT cells (human, UniProt Q495A1 22-244).
T2 construct: whole, on cells; also called human TIGIT on the surface of Jurkat cells
T2 sequence (looked up): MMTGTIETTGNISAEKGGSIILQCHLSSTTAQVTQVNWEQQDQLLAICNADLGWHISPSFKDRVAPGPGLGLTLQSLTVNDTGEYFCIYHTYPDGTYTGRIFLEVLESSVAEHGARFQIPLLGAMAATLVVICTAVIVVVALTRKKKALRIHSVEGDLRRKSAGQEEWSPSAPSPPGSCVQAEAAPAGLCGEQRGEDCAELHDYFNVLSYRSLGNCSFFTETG
In words: flow cytometry, blocking of 1 ug/mL PVR-mFc binding to Jurkat-hTIGIT cells. As to the method:
Jurkat-hTIGIT cells (human T lymphocytes, human TIGIT positive) were incubated with different concentrations of the bispecific antibodies JS-1, JS-3, JS-5 and JS-9 and 1 μg/mL human PVR-mFc protein at 4° C. for 30 min, then washed and incubated with a fluorescence-labeled anti-mouse IgG secondary antibody (1:200) in a dark place at 4° C. for 30 min. Finally, the cells were collected using a flow cytometer (BD Canto II), and the fluorescent antibodies bound to the cell surface were detected. Raw data were analyzed using FlowJo to obtain MFI values, antibody dose-dependent binding curves (FIG. 4) were fitted using GraphPad, and IC50 was calculated. The positive controls were hu20 (a recombinant humanized anti-TIGIT monoclonal antibody) and JS-Ref (Hengrui) (an anti-TIGIT/CD112R bispecific antibody of Hengrui, expressed and purified according to the sequence of the patent WO2021180205), and the negative control was an anti-KLH-hIgG4 antibody.
For orientation: In flow cytometry, cells or beads pass a laser one at a time.

A further test concerns the target T3, human CD112R-mFc protein (human, UniProt Q6DKI7 41-171, limits assumed).
T3 construct: also called human CD112R protein; not shown: mouse Fc (mFc)
T3 sequence (looked up): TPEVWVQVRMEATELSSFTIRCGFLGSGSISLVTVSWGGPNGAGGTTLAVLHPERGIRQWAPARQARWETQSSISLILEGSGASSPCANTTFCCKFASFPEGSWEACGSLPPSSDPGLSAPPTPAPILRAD
The test is described as follows: flow cytometry, blocking of 1 ug/mL CD112R-mFc binding to CHO hCD112 cells. As to the method:
CHO hCD112 cells (Chinese hamster ovary cells, human CD112 positive) were incubated with different concentrations of the bispecific antibodies JS-1, JS-3, JS-5 and JS-9 and 1 μg/mL human CD112R-mFc protein at 4° C. for 30 min, then washed twice and incubated with a fluorescence-labeled anti-mouse IgG secondary antibody (1:200) in a dark place at 4° C. for 30 min. Finally, the cells were collected using a flow cytometer (BD Canto II), and the fluorescent antibodies bound to the cell surface were detected. Raw data were analyzed using FlowJo to obtain MFI values, antibody dose-dependent binding curves (FIG. 4) were fitted using GraphPad, and IC50 was calculated. The positive controls were hu52 (a recombinant humanized anti-CD112R monoclonal antibody) and JS-Ref (Hengrui) (an anti-TIGIT/CD112R bispecific antibody of Hengrui, expressed and purified according to the sequence of the patent WO2021180205), and the negative control was an anti-KLH-hIgG1 antibody.

For test [4], the target named is T4, recombinant human HX1 hCD112R Fc (human, UniProt Q6DKI7 41-171, limits assumed).
T4 construct: Coated antigen of the ELISA (Suzhou Junmeng); also called human CD112R; not shown: Fc part
T4 sequence (looked up): T3 sequence (looked up)
The test is described as follows: ELISA, plate coated with recombinant human HX1 hCD112R Fc, detection with HRP anti-human IgG4 Fc; unit taken from the concentration axis [3b]. The procedure:
(§2) 2. Procedures [0255] a. A 96-well plate was coated with 1.0 μg/mL recombinant human HX1 hCD112R Fc (Suzhou Junmeng) as the antigen at 100 μL/well and incubated at 37° C. for 1.5 h. [0256] b. The plate was washed 4 times with 300 μL/well 1×PBST, and 2% BSA was added at 200 μL/well. The plate was blocked at 37° C. for 1.5 h. [0257] c. The plate was washed 4 times with 300 μL/well 1×PBST, and serial dilutions of the bispecific antibodies JS-1,3,5,9 and a negative control: antibody (anti-KLH hIgG4) (initial concentration 3.0 μg/mL, 3-fold serially diluted to 12 concentration points, 100 μL/well) were added. The plate was incubated at 37° C. for 1 h. [0258] d. The plate was washed 4 times with 300 μL/well 1×PBST. [0259] e. 5000-fold diluted horseradish peroxidase (HRP)-conjugated mouse anti-human IgG4 Fc antibody (Southern Biotech, 9200-05) was added at 100 μL/well, and the plate was incubated at 37° C. for 1 h. [0260] f. The plate was washed 4 times with 300 μL/well 1×PBST. [0261] g. 0.1 mg/mL TMB was added at 100 μL/well, and after the plate was incubated at 37° C. for 15 min, a 2 M solution of hydrochloric acid was added at 100 μL/well to stop the reactions. […] The absorbance was measured at 450 nm/620 nm on a microplate reader, and data were analyzed using Graphpad Prism7.

Test [5] addresses T4, recombinant human HX1 hCD112R Fc. The test is described as follows: ELISA, plate coated with recombinant human HX1 hCD112R Fc, detection with HRP anti-human IgG4 Fc; unit taken from the concentration axis [3a]. The procedure: as §2

B1: hu20 (a recombinant humanized anti-TIGIT monoclonal antibody) (antibody, V domains shown)
VH: QVQLVQSGAEVKKPGASVKVSCKTSGYAFTEYTMHWVRQAPGKGLEWMGGINPNTGGTTYNQKFQGRVTLTVDKSSSTAYMELSSLRSEDTVVYYCAKLLRLMYYFDYWGQGTLVTVSS
VL: DIQMTQSPSSLSASVGDRVTITCQASQDVRTAVAWYQQKPGKAPKLLIYSASYRYTGVPSRFSGSGSGTDFTFTISSLQPEDIATYYCHQHYITPWTFGGGTKVEIKR
notes: vector hu20-2O18HC-3; also called hu20 mAb; anti-TIGIT antibody; not shown: heavy chain constant region
In general, EC50 refers to the concentration giving half of the maximal effect. In general, IC50 refers to the concentration needed to halve the response being measured. Low readings indicate greater potency, high ones weaker potency. Turning to B1, the EC50 in test [1] turned out to be 6.63 ng/mL; in test [2], 20.9 ng/mL. The same molecule gave an IC50 in test [3] of 1.98 nM.

B2: hu52 (a recombinant humanized anti-CD112R monoclonal antibody) (antibody, human IgG4 S228P, kappa, V domains shown)
VH: EVQLVESGGGLVKPGGSLRLSCAASGFTFSSYHMSWVRQAPGKGLELVSAINSNGINTYYLDTVKGRFTISRDNAKNSLYLQMNSLRAEDTAVYYCARHEDYYGFAMDYWGQGTLVTVSS
VL: DIVMTQSPDSLAVSLGERATINCKASQSVSNDVAWYQQKPGQPPKLLIYYVSHRFTGVPDRFSGSGSGTDFTLTISSLQAEDVAVYFCHQAYRSPWTFGQGTKLEIKR
notes: also called hu52 mAb; anti-CD112R antibody
The molecule B2 gave an IC50 with human CD112R-mFc protein of 0.601 nM. Also, the EC50 in test [4] was found to be 2.62 ng/mL; in test [5], 2.46 ng/mL.
